From the supplement of paper PMC7877785
± gives the uncertainty stated by the source.

Test: self-splicing fitness, log relative to wild type (ln ratio); higher = more splicing; Tetrahymena group I intron in knt gene, E. coli kanamycin selection, DiMSum; sequences stand for … in CUCUCU…GGAGGGAAAAGUUAUCAGGCAUGCACCUGGUAGCUAGUCUUUAAACCAAUAGAUUGCAUCGGUUUAAAAGGCAAGACCGUCAAAUUGCGGGAAAGGGGUCAACAGCCGUUCAGUACCAAGUCUCAGGGGAAACUUUGAGAUGGCCUUGCAAAGGGUAUGGUAAUAAGCUGACGGACAUGGUCCUAACCACGCAGCCAAGUCCUAAGUCAACAGAUCUUCUGUUGAUAUGGAUGCAGUUCACAGACUAAAUGUCGGUCGGGGAAGAUGUAUUCUUCUCAUAAGAUAUAGUCGGACCUCUCCUUAAUGGGAGCUAGCGGAUGAAGUGAUGCAACACUGGAGCCGCUGGGAACUAAUUUGUAUGCGAAAGUAUAUUGAUUAGUUUUGGAGUACUCGUGGUCG
Summary of the method: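 Pooled colonies went to amplicon sequencing on an Illumina HiSeq 2500 after six replicate transformations. The plates were LB agar with 100 μg/mL carbenicillin, 50 μM IPTG and 0.2% rhamnose, with or without 25 μg/mL kanamycin, incubated overnight at 37°C or 30°C. The E. coli BL21(DE3) library had all eight P1ex-region intron nucleotides randomised, the intron placed in the knt kanamycin-resistance gene on pET-22b(+). DiMSum fitness is the error-weighted combination of replicate fold changes, kanamycin against none, normalised to wild type.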

Row | Sequence | self-splicing fitness (ln) (30 °C) | self-splicing fitness (ln) (37 °C)
1 | ACCCAGCAAUAUUACGCUAC | -4.01 ± 0.27 | -2.38 ± 0.19
2 | ACCCAGCAAUAUUACGCUCC | -0.481 ± 0.099 | -0.338 ± 0.14
3 | ACCCAGCAAUAUUACGCUUU | -0.704 ± 0.049 | 0.0854 ± 0.064
4 | ACCCAGCAAUAUUACGGACC | -0.974 ± 0.073 | -0.347 ± 0.089
5 | ACCCAGCAAUAUUACGGCCG | -2.81 ± 0.15 | -2.6 ± 0.19
6 | ACCCAGCAAUAUUACGGGAG | -1.23 ± 0.059 | -1.05 ± 0.082
7 | ACCCAGCAAUAUUACGGUAC | -2.51 ± 0.081 | -0.741 ± 0.078
8 | ACCCAGCAAUAUUACGUAUC | -2.25 ± 0.077 | -1.63 ± 0.092
9 | ACCCAGCAAUAUUACGUCCA | -1.27 ± 0.12 | -0.696 ± 0.16
10 | ACCCAGCAAUAUUACGUCGG | -2.15 ± 0.073 | -0.593 ± 0.088
11 | ACCCAGCAAUAUUACGUCUG | -3.16 ± 0.12 | -2.79 ± 0.14
12 | ACCCAGCAAUAUUACGUGAC | -1.07 ± 0.047 | -1.25 ± 0.085
13 | ACCCAGCAAUAUUACGUGCC | -1.98 ± 0.08 | -0.963 ± 0.1
14 | ACCCAGCAAUAUUACGUUAC | -3.24 ± 0.14 | -1.13 ± 0.14
15 | ACCCAGCAAUAUUACGUUCG | -3.74 ± 0.14 | -1.26 ± 0.088
16 | ACCGAGCAAUAUUACGAGUA | -3.23 ± 0.27 | -3.5 ± 0.35
17 | ACCGAGCAAUAUUACGCAUC | -1.14 ± 0.17 | –
18 | ACCGAGCAAUAUUACGCCAA | – | -2.01 ± 0.3
19 | ACCGAGCAAUAUUACGCUCG | -3.22 ± 0.32 | -1.61 ± 0.2
20 | ACCGAGCAAUAUUACGCUGA | -3.32 ± 0.24 | -1.24 ± 0.16
21 | ACCGAGCAAUAUUACGCUGC | -2.73 ± 0.16 | -2.5 ± 0.23
22 | ACCGAGCAAUAUUACGGCCU | -0.622 ± 0.086 | 0.418 ± 0.11
23 | ACCGAGCAAUAUUACGGCGG | -3.59 ± 0.3 | -2.58 ± 0.39
24 | ACCGAGCAAUAUUACGGGAU | -3.29 ± 0.13 | -2.5 ± 0.15
25 | ACCGAGCAAUAUUACGGGCA | -0.957 ± 0.1 | -0.109 ± 0.11
26 | ACCGAGCAAUAUUACGGGUG | -1.43 ± 0.061 | -1.08 ± 0.068

Row | Sequence | self-splicing fitness (ln) (30 °C) | self-splicing fitness (ln) (37 °C)
27 | ACCGAGCAAUAUUACGUACA | -2.64 ± 0.27 | -2.04 ± 0.27
28 | ACCGAGCAAUAUUACGUAGU | -3.62 ± 0.18 | -2.26 ± 0.15
29 | ACCGAGCAAUAUUACGUAUC | – | -2.59 ± 0.25
30 | ACCGAGCAAUAUUACGUCAA | -3.16 ± 0.19 | -2.36 ± 0.3
31 | ACCGAGCAAUAUUACGUCGC | -3.69 ± 0.28 | –
32 | ACCGAGCAAUAUUACGUGGC | -4.18 ± 0.2 | -2.21 ± 0.18
33 | ACCGAGCAAUAUUACGUGUU | -3.76 ± 0.19 | -2.65 ± 0.24
34 | ACCGAGCAAUAUUACGUUGA | -2.98 ± 0.17 | -2.59 ± 0.21
35 | ACCGAGCAAUAUUACGUUGG | -4.16 ± 0.27 | -2.41 ± 0.22
36 | ACCUAGCAAUAUUACGAAAA | -2.66 ± 0.18 | -1.7 ± 0.13
37 | ACCUAGCAAUAUUACGAACU | -0.308 ± 0.084 | 0.0875 ± 0.11
38 | ACCUAGCAAUAUUACGACGU | -0.142 ± 0.071 | 0.371 ± 0.084
39 | ACCUAGCAAUAUUACGAGGU | -3.09 ± 0.17 | -2.43 ± 0.17
40 | ACCUAGCAAUAUUACGCAAC | -1.98 ± 0.16 | -0.895 ± 0.094
41 | ACCUAGCAAUAUUACGCCAA | -3.4 ± 0.27 | -2.09 ± 0.23
42 | ACCUAGCAAUAUUACGCCCU | -0.142 ± 0.12 | -0.462 ± 0.14
43 | ACCUAGCAAUAUUACGCCUG | -2.69 ± 0.19 | -1.66 ± 0.22
44 | ACCUAGCAAUAUUACGCGAA | -3.01 ± 0.19 | -1.99 ± 0.12
45 | ACCUAGCAAUAUUACGCGUA | -2.46 ± 0.17 | -1.22 ± 0.11
46 | ACCUAGCAAUAUUACGGCUA | -2.93 ± 0.13 | -2.65 ± 0.17
47 | ACCUAGCAAUAUUACGGUAU | -3.08 ± 0.14 | -1.44 ± 0.11
48 | ACCUAGCAAUAUUACGGUUC | -4.77 ± 0.34 | -2.62 ± 0.24
49 | ACCUAGCAAUAUUACGGUUU | -1.85 ± 0.065 | -0.482 ± 0.087
50 | ACCUAGCAAUAUUACGUAGU | -2.07 ± 0.09 | -0.568 ± 0.081
51 | ACCUAGCAAUAUUACGUCCU | -0.685 ± 0.067 | -0.579 ± 0.075
52 | ACCUAGCAAUAUUACGUCUC | -1.59 ± 0.096 | -0.658 ± 0.14

Row | Sequence | self-splicing fitness (ln) (30 °C) | self-splicing fitness (ln) (37 °C)
53 | ACCUAGCAAUAUUACGUUGU | -1.79 ± 0.066 | -1.12 ± 0.082
54 | ACCUAGCAAUAUUACGUUUC | -3.55 ± 0.13 | -1.94 ± 0.13
55 | ACGAAGCAAUAUUACGAAGC | -3.6 ± 0.27 | -2.61 ± 0.3
56 | ACGAAGCAAUAUUACGAAGU | -3.44 ± 0.16 | -2.86 ± 0.2
57 | ACGAAGCAAUAUUACGACGG | -1.2 ± 0.12 | -0.994 ± 0.094
58 | ACGAAGCAAUAUUACGAGAU | -4.36 ± 0.17 | -1.79 ± 0.16
59 | ACGAAGCAAUAUUACGAUGA | -1.88 ± 0.18 | -1.29 ± 0.17
60 | ACGAAGCAAUAUUACGCAGC | -2.47 ± 0.21 | -0.916 ± 0.18
61 | ACGAAGCAAUAUUACGCCCC | -0.521 ± 0.21 | -2.24 ± 0.39
62 | ACGAAGCAAUAUUACGCGCG | -0.867 ± 0.12 | -0.486 ± 0.18
63 | ACGAAGCAAUAUUACGCUUU | -3.88 ± 0.22 | -2.63 ± 0.22
64 | ACGAAGCAAUAUUACGGCUC | -3.05 ± 0.22 | -1.62 ± 0.23
65 | ACGAAGCAAUAUUACGGCUU | -3.97 ± 0.24 | -2.76 ± 0.22
66 | ACGAAGCAAUAUUACGGGCC | -2.74 ± 0.15 | -1.7 ± 0.14
67 | ACGAAGCAAUAUUACGGUGA | -2.33 ± 0.088 | -1.48 ± 0.085
68 | ACGAAGCAAUAUUACGUACC | -1.3 ± 0.14 | -1.17 ± 0.19
69 | ACGAAGCAAUAUUACGUAUU | -3.11 ± 0.087 | -2.18 ± 0.093
70 | ACGAAGCAAUAUUACGUCCU | -0.493 ± 0.083 | -0.288 ± 0.11
71 | ACGAAGCAAUAUUACGUCUG | -0.601 ± 0.069 | -0.997 ± 0.092
72 | ACGAAGCAAUAUUACGUGAA | -2.43 ± 0.089 | -1.64 ± 0.13
73 | ACGAAGCAAUAUUACGUGAU | -2.04 ± 0.054 | -0.989 ± 0.072
74 | ACGAAGCAAUAUUACGUGGA | -2.7 ± 0.13 | -2.69 ± 0.18
75 | ACGAAGCAAUAUUACGUGUG | -2.16 ± 0.054 | -0.817 ± 0.063
76 | ACGAAGCAAUAUUACGUUCC | -2.97 ± 0.2 | -1.29 ± 0.16
77 | ACGCAGCAAUAUUACGACCC | -1.66 ± 0.18 | -0.0893 ± 0.28
